Test results from patent publication US20150266925A1 (COMPLIX, published 2015).
Numbering of substitutions follows the chain as printed.

T1: human IL-23 (human, UniProt Q9NPF7 20-189; P29460 23-328)
T1 construct: Bought recombinant heterodimeric cytokine (eBioscience 34-8239-85 for panning; R&D Systems for the splenocyte assay); also called hIL-23; hIL23
T1 sequence (looked up) 1: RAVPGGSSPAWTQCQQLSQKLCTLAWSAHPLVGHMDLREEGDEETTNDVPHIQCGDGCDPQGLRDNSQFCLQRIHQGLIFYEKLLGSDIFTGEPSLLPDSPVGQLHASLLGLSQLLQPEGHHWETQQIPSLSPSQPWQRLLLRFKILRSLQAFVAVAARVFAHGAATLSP
T1 sequence (looked up) 2: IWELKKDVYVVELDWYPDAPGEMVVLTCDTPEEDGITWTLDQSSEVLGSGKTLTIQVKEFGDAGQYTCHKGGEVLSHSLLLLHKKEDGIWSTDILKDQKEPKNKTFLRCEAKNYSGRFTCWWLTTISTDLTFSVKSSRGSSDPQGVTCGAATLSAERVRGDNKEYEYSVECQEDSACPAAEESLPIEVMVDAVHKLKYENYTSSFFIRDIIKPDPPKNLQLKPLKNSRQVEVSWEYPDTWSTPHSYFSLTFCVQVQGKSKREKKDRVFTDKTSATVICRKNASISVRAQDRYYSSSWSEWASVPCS

B1: MB64 (designed binder)
chain: MSIQQIQKEITQIQAVIAGIQKYIYRMTGGSGGSGGGGSGGSGGMSIEEIQKQIAAIQCQIAAIQKQIYAMTGSGGGGSGMSIEEIQKQIAAIQGQIVAIYKQIMAMAT
B2: MA9 (designed binder)
chain: B1 chain with Q12T, G19A, Y23W, R26T, V98I, A108K, T109D
B3: MA15 (designed binder)
chain: B1 chain with Q5E, T11A, Q12N, R26T, A91T, G95A, V98I, A108P, T109R
B4: MB74 (designed binder)
chain: B1 chain with T11A, Q12T, A15E, V98L, T109I
B5: MAcons (designed binder)
single chain Alphabody: B1 chain with T11A, A15E, G19A, Y23W, R26S, G95D, A108S, T109G
notes: also called polypeptide 15
B6: MB23 (designed binder)
chain: MSIEQIQKEITTIQEVIAAIQKYIYTMTGGSGGSGGMSIEEIQKQIAAIQCQIAAIQKQIYAMTGSGGGGSGMSIEEIQKQIAAIQEQIVAIYKQIMAMAS
notes: 3 for clone 59 (conflict); also called non-PEGylated MB23 Alphabody
B7: MA14 (designed binder)
chain: B6 chain with K8T, T11A, T12S, A19G, T26S, E87N, A100G, S101G
B8: MA23 (designed binder)
chain: B6 chain with E4Q, T11A, T12N, Y23W, T26L, A100P
B9: MB38 (designed binder)
chain: B6 chain with E4Q, Q5E, T11K, T12Q, A19G, T26G, E87N, V90L, A100P, S101Q
B10: MB76 (designed binder)
chain: B6 chain with E4Q, T12Q, T26R, G35D, E87G, V90L, A100S, S101L
B11: 59m_C2eQ (designed binder)
single chain Alphabody: MSIQQIQKEIAQIQEVIAGIQKWIYMMTGGSGGSGGGGSGGSGGMSIEEIQKQIAAIQCQIAAIQKQIYAMTGSGGGGSGGSGGGGSGMSIEEIQKQITAIQEQIIAIYKQIMAMTP
notes: also called design variant; polypeptide 19
B12: MA12 (designed binder)
chain: B11 single chain Alphabody with Q5E, E15A, W23Y, M26T, T99A, I106L, T116V, P117T
notes: also called MAl2
B13: 59m_A3cA_A4cS_C2eQ (designed binder)
single chain Alphabody: B11 single chain Alphabody with G19A, M26S
notes: also called design variant; polypeptide 20
B14: MB9 (designed binder)
chain: MSIQQIQKEITNIQEVIAAIQKWIYTMTGGSGGSGGMSIEEIQKQIAAIQCQIAAIQKQIYAMTGSGGGGSGGSGGGGSGMSIEEIQKQIAAIQNQILAIYKQIMAMGS
B15: MB67 (designed binder)
chain: B14 chain with Q5K, W23Y, N95R, G108S, S109T
B16: MA5 (designed binder)
chain: B14 chain with Q4K, T11A, N12Q, T26R, N95D, L98V, G108S
B17: MB43 (designed binder)
chain: B14 chain with Q4E, Q5E, T11K, W23Y, Q87P, N95D, L98I, G108T, S109R
B18: Cl59m (designed binder)
chain: B11 single chain Alphabody with S34G, G35S, S42G, G43S, C59K, S74G, G75S, S82G, G83S, Q102K
notes: Rationally designed (in silico matured) variant of Cl59; also called C159m
B19: Cl59 (designed binder)
chain: MSIEEIQKQIASIQEVIAGIQKWIYMMTGGSGGSGGMSIEEIQKQIAAIQKQIAAIQKQIYAMTGGSGGGGSGMSIEEIQKQITAIKEQIIAIYKQIMAMTP
notes: Non-matured Alphabody from the AC11 library, tested as soluble recombinant protein; also called Clone 59; C159
B20: MB23-PEG (designed binder)
chain: B6 chain
modifications: 40 kDa activated maleimide PEG conjugated to the single free thiol group (Cys) of MB23

target: T1, human IL-23; experiment: equilibrium ELISA, soluble polypeptide

Kd | Binder
0.21 nM | B1
0.17 nM | B2
0.31 nM | B3
0.35 nM | B4
0.23 nM | B5
0.17 nM | B6
1.8 nM | B7
0.29 nM | B8
0.2 nM | B9
1.83 nM | B10
0.93 nM | B11
0.11 nM | B12
0.39 nM | B13
0.27 nM | B14
0.25 nM | B15
0.1 nM | B16
0.2 nM | B17

target: T1, human IL-23; experiment: cell-based or functional assay

functional KD (DB fKD), DB cell assay: Stat3 phosphorylation induced by human IL-23; n data = 2 | functional KD (Spleno fKD), mouse splenocyte assay: IL-17 production induced by human IL-23; n data = 5 | functional KD (Spleno fKD), mouse splenocyte assay: IL-17 production induced by human IL-23; n data = 3 | functional KD (Spleno fKD), mouse splenocyte assay: IL-17 production induced by human IL-23; n data = 1 | Binder
0.46 nM | 0.18 nM | – | – | B1
0.24 nM | – | 0.46 nM | – | B2
0.29 nM | – | 0.48 nM | – | B3
– | – | – | 0.9 nM | B4
– | – | – | 4.1 nM | B5
0.16 nM | – | – | – | B6
– | – | – | 11 nM | B7
– | – | – | 10 nM | B8
– | – | 1.01 nM | – | B9
– | – | – | 1.7 nM | B10
– | – | – | 1.9 nM | B11
1.73 nM | 21.7 nM | – | – | B18
0.35 nM | 0.13 nM | – | – | B12
– | – | – | 0.7 nM | B13
0.7 nM | – | – | – | B14
0.45 nM | – | 1.15 nM | – | B16
– | – | 68.8 nM | – | B19

target: T1, human IL-23; experiment: standard equilibrium ELISA

factor better than the non-matured variant C159 | Binder
38 fold | B12
38 fold | B16

target: T1, human IL-23; experiment: equilibrium ELISA, soluble polypeptide; equilibrium ELISA

Kd | Binder
3.8 nM | B19

target: T1, human IL-23; experiment: standard equilibrium ELISA, soluble polypeptide; MA12

Kd | Binder
0.1 nM | B12

target: T1, human IL-23; experiment: kinetic ELISA, soluble polypeptide

Kd | koff | kon | Binder
0.3 nM | 0.00033 s⁻¹ | 1.1e+06 M⁻¹ s⁻¹ | B1
0.25 nM | 0.00035 s⁻¹ | 1.4e+06 M⁻¹ s⁻¹ | B2
0.09 nM | 7.2e-05 s⁻¹ | 800000 M⁻¹ s⁻¹ | B3
0.25 nM | 0.00016 s⁻¹ | 650000 M⁻¹ s⁻¹ | B4
0.13 nM | 0.00032 s⁻¹ | 2.5e+06 M⁻¹ s⁻¹ | B5
0.15 nM | 0.00021 s⁻¹ | 1.5e+06 M⁻¹ s⁻¹ | B6
2.5 nM | 0.0005 s⁻¹ | 200000 M⁻¹ s⁻¹ | B7
0.7 nM | 0.00032 s⁻¹ | 450000 M⁻¹ s⁻¹ | B8
0.21 nM | 0.00022 s⁻¹ | 1e+06 M⁻¹ s⁻¹ | B9
2.3 nM | 0.00056 s⁻¹ | 250000 M⁻¹ s⁻¹ | B10
3.9 nM | 0.00043 s⁻¹ | 110000 M⁻¹ s⁻¹ | B11
0.26 nM | 0.00021 s⁻¹ | 810000 M⁻¹ s⁻¹ | B12
0.75 nM | 0.00026 s⁻¹ | 350000 M⁻¹ s⁻¹ | B13
0.13 nM | 0.00025 s⁻¹ | 1.9e+06 M⁻¹ s⁻¹ | B14
0.14 nM | 0.00022 s⁻¹ | 1.6e+06 M⁻¹ s⁻¹ | B15
0.03 nM | 0.00016 s⁻¹ | 4.5e+06 M⁻¹ s⁻¹ | B16
0.11 nM | 0.00014 s⁻¹ | 1.3e+06 M⁻¹ s⁻¹ | B17
– | 0.0007 s⁻¹ | 100000 M⁻¹ s⁻¹ | B19

target: T1, human IL-23; experiment: phage-coated ELISA, clone displayed on phage

Kd | Binder
0.09 nM | B1
0.2 nM | B2
0.12 nM | B3
0.47 nM | B4
0.07 nM | B6
1.5 nM | B7
0.7 nM | B8
0.18 nM | B9
0.16 nM | B10
0.08 nM | B12
0.2 nM | B14
0.21 nM | B15
0.2 nM | B16
0.18 nM | B17
3 nM | B19

target: T1, human IL-23; experiment: ELISA

Kd | Binder
0.3 nM | B18

target: T1, human IL-23; experiment: kinetic ELISA, soluble polypeptide; kinetic ELISA

Kd | Binder
7 nM | B19

target: T1, human IL-23; experiment: cell-based or functional assay; remark: another data set of the same source

IC50 (read off the curve), inhibition of Stat3 phosphorylation in DB cells by MB23-PEG pre-incubated with 35 pM hIL23 | Binder
~1 nM | B20
